Results reported in article PMC8928829 (mAbs, 2022).

B1: NIH-CoVnb-112 (VHH)
VHH: DVQLQESGGGLVQPGGSLRLSCAASGLTLDYYAIGWFRQAPGKEREGVSCISSSDGSTYYADSVKGRFTTSRDNAKNTVYLQMNSLKPEDTAVYYCAAVPSTYYSGTYYYTCHPGGMDYWGKGTQVTVSS
B2: NIH-CoVnb-112 (VHH)
VHH: B1 VHH

Legend:
Conditions in all cases: both partners purified
[1] = target: recombinant SARS-CoV-2 RBD, prototype (BLI) (SARS-CoV-2, prototype (Wuhan-Hu-1), UniProt P0DTC2); experiment: BLI
[2] = target: T1, SARS-CoV-2 RBD (prototype), construct made for crystallography (SARS-CoV-2, prototype (Wuhan-Hu-1)); experiment: crystal structure
T1 construct: also called prototype SARS-CoV-2 RBD; SARS-CoV-2 RBD (319-537)

[3] = target: SARS-CoV-2 RBD, prototype (SARS-CoV-2, prototype (Wuhan-Hu-1), UniProt P0DTC2); experiment: BLI

Binder	Kd [1] [nM]	koff [1] [s⁻¹]	binding result [2]	kon [3] [M⁻¹ s⁻¹]
B1	1.59	0.000236	binds	–
B2	–	–	–	223000
